One block for each binder: values may come before it.
Experiments:
Assay in all cases: two-hybrid library CCmax;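 further: natural log of median RNA to DNA barcode read ratio; higher means stronger binding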
Core_IIII-es_KEEE = biological target: T1, Core_IIII-es_KEEE; conditions: mean of both orientations
T1 chain: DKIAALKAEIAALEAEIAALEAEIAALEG

Core_IIIN-es_KEKE = biological target: T2, Core_IIIN-es_KEKE
T2 chain: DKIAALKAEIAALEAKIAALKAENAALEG

Core_IIIN-es_KEEE = biological target: T3, Core_IIIN-es_KEEE; conditions: mean of both orientations
T3 chain: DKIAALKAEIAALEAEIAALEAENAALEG

Core_NINI-es_KEEE = biological target: T4, Core_NINI-es_KEEE; conditions: mean of both orientations
T4 chain: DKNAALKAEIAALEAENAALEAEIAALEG

Core_IIII-es_KKEK = biological target: T5, Core_IIII-es_KKEK; conditions: mean of both orientations
T5 chain: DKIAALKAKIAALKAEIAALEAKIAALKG

- interaction score (Core_IIII-es_KEEE): 1.95
Binder: DEIAALEAKIAALKAKIAALKAKIAALKG [Core_IIII-es_EKKK]

- interaction score (Core_IIIN-es_KEKE): 2.11
Binder: DEIAALEAKIAALKAEIAALEAKNAALKG [Core_IIIN-es_EKEK]

- interaction score (Core_IIIN-es_KEEE): 2.06
Binder: DEIAALEAKIAALKAKIAALKAKNAALKG [Core_IIIN-es_EKKK]

- interaction score (Core_NINI-es_KEEE): 2.35
Binder: DENAALEAKIAALKAKNAALKAKIAALKG [Core_NINI-es_EKKK]

- interaction score (Core_IIII-es_KKEK): 2.36
Binder: DEIAALEAEIAALEAKIAALKAEIAALEG [Core_IIII-es_EEKE]

From PMC10397247
